{"source": "patent US20260226110A1", "target": "single antigen M1 peptide segment of monkeypox virus (monkeypox virus isolate MPXV_USA_2022_MA001) (UniProt M1LBP0)", "sequence (M1LBP0 1-181 limits assumed)": "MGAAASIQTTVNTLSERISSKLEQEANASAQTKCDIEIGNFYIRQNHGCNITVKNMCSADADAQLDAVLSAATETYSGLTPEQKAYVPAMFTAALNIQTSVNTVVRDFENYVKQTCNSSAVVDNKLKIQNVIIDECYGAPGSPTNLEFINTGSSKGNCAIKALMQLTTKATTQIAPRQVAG", "data": [{"substance": "neutralizing antibody 7D11", "values": [{"measurement": "koff", "value": 0.00476, "unit": "s⁻¹"}, {"measurement": "kon", "value": "1.44e+06", "unit": "M⁻¹ s⁻¹"}]}]}
